Experiments:
[1] = target: human poly(C)-binding protein 2 (PCBP2), full length, wild type (human) (UniProt Q15366); assay: AUC
[2] = target: human poly(C)-binding protein 2 (PCBP2), full length, wild type (human) (UniProt Q15366); assay: SAXS
PCBP2 WT [3] = target: T1, PCBP2 WT (Homo sapiens, UniProt Q15366 1-365); assay: EMSA; no appreciable binding at 28-fold molar excess; settings: protein: recombinant; tags: N-terminal polyHis; single strand
nsp1β WT;PCBP2 WT [4] = target: T2, nsp1β WT;PCBP2 WT (PRRSV isolate SD01-08 (Betaarterivirus …, UniProt Q04561;Q15366 181-385;1-365, |)); assay: EMSA; settings: protein: recombinant;recombinant; tags: GST tag removed with HRV 3C protease;N-terminal polyHis; copies: 1;1; single strand
nsp1β WT;PCBP2 WT [5] = target: T2, nsp1β WT;PCBP2 WT; assay: EMSA; supershift relative to PCBP2 alone; complex also purified by SEC; settings: protein: recombinant;recombinant; tags: GST tag removed with HRV 3C protease;N-terminal polyHis; copies: 1;1; single strand
nsp1β WT = target: T3, nsp1β WT (PRRSV isolate SD01-08 (Betaarterivirus …, UniProt Q04561 181-385)); assay: EMSA; up to 20-fold molar excess; settings: protein: recombinant; tags: GST tag removed with HRV 3C protease; single strand
T3 sequence: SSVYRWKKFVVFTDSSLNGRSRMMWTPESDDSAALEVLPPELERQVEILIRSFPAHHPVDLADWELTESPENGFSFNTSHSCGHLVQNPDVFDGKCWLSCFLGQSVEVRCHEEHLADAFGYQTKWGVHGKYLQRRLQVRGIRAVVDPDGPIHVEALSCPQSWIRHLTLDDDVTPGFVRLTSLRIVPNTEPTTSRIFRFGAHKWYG

PCBP2 WT [6] = target: T1, PCBP2 WT; assay: EMSA; seen from 8-fold, strong at 20-fold molar excess; settings: protein: recombinant; tags: N-terminal polyHis; single strand
nsp1β WT;PCBP2 WT [7] = target: T2, nsp1β WT;PCBP2 WT; assay: EMSA; large molar excess of both proteins; settings: protein: recombinant;recombinant; tags: GST tag removed with HRV 3C protease;N-terminal polyHis; copies: 1;1; single strand

T2 sequence (Q15366 whole entry, one chain of several): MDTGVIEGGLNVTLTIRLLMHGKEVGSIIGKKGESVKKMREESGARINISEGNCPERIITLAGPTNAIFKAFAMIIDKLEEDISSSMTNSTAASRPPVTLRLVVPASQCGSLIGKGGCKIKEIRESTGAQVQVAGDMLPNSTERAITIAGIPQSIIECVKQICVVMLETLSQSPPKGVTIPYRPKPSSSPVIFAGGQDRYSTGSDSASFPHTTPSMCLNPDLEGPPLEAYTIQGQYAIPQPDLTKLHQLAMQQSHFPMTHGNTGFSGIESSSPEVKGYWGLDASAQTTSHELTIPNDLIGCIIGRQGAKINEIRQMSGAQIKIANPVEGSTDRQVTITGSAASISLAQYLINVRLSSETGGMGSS
human poly(C)-binding protein 2 (PCBP2), full length, wild type (human), sequence (Q15366 whole entry): as the sequence (Q15366 whole entry, one chain of several) above
T1 sequence (Q15366 whole entry): as the sequence (Q15366 whole entry, one chain of several) above

Molecule: PRRSV nonstructural protein 1β (nsp1β), isolate SD01-08, wild type (natural protein)
- stoichiometry N [1]: 1
- stoichiometry N [2]: 1

B1: 34-nt PRRSV ssRNA (ssRNA)
RNA: GGGUUUUUGAAGUUUACUCCCAUCUCCCAGCUUU
- binding result (PCBP2 WT [3]): no binding
- binding result (nsp1β WT;PCBP2 WT [4]): binds

B2: 34-nt PRRSV ssDNA (ssDNA)
DNA: GGGTTTTTGAAGTTTACTCCCATCTCCCAGCTTT
- binding result (nsp1β WT;PCBP2 WT [5]): binds
- binding result (nsp1β WT): no binding
- binding result (PCBP2 WT [6]): binds

B3: 34-nt CC2 ssDNA (ssDNA)
DNA: GGGTTTTTGAAGTTTACTGAAATATGGCAGCTTT
- binding result (nsp1β WT;PCBP2 WT [7]): no binding
